From paper PMC10350818 (The EMBO Journal, 2023)

Experiments:
Assay in all cases: pull-down; GST pull-down with purified GST or GST-p37 as bait, p97 variants and SPI or SPI variant, in the presence of ATP; Western blot
Details in all cases: both partners purified
His-tagged p97 Y143A = molecular target: T1, His-tagged p97 Y143A (human, UniProt P55072 2-806, Y143A)
T1 construct: p97 (VCP), human, point mutation in the N-domain groove; source: generated in bacteria, purified

His-tagged p97 G54K = molecular target: T2, His-tagged p97 G54K (human, UniProt P55072 2-806, G54K)
T2 construct: p97 (VCP), human, point mutation in the N-domain groove; source: generated in bacteria, purified

[1] = molecular target: T3, His-tagged p97 (from bacteria), wild type (human, UniProt P55072 2-806)
T3 construct: p97 (VCP), human; Wild-type p97 of the GST pull-down assays; also called VCP; source: generated in bacteria, purified

Measured: binding result

T1 sequence (P55072 2-806 Y143A): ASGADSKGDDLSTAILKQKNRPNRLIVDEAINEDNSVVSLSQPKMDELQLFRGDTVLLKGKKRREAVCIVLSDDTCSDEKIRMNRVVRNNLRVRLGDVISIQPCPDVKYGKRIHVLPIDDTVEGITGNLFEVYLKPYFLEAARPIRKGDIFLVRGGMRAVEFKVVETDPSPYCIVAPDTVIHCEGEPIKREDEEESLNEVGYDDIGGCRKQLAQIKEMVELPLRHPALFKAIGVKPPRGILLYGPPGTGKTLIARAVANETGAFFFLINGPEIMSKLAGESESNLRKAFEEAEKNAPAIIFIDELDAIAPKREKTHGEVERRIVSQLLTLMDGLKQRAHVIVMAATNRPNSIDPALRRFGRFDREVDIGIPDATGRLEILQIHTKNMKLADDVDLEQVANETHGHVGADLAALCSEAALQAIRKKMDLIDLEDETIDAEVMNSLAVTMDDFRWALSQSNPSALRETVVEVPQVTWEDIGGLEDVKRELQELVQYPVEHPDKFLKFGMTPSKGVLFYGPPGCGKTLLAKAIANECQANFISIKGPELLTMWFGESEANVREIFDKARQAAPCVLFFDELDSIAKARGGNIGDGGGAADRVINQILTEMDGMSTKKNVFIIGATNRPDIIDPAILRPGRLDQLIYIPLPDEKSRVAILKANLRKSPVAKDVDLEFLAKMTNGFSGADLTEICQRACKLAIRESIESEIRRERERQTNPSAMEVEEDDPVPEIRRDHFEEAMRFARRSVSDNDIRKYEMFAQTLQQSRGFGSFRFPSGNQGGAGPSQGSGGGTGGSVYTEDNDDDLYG
T2 sequence (P55072 2-806 G54K): as the sequence (P55072 2-806 Y143A) above, with G53K, A142Y counted along it
T3 sequence (P55072 2-806): as the sequence (P55072 2-806 Y143A) above, with A142Y counted along it

B1: GST-p37 (natural protein, human, UniProt Q14CS0 1-331, looked up)
chain: MAEGGGPEPGEQERRSSGPRPPSARDLQLALAELYEDEVKCKSSKSNRPKATVFKSPRTPPQRFYSSEHEYSGLNIVRPSTGKIVNELFKEAREHGAVPLNEATRASGDDKSKSFTGGGYRLGSSFCKRSEYIYGENQLQDVQILLKLWSNGFSLDDGELRPYNEPTNAQFLESVKRGEIPLELQRLVHGGQVNLDMEDHQDQEYIKPRLRFKAFSGEGQKLGSLTPEIVSTPSSPEEEDKSILNAVVLIDDSVPTTKIQIRLADGSRLIQRFNSTHRILDVRNFIVQSRPEFAALDFILVTSFPNKELTDESLTLLEADILNTVLLQQLK
notes: Bait of the GST pull-down assays; source: generated in bacteria, purified
binds: all assays above
